Data reported in PMC8510090, “The DNA Recognition Motif of GapR Has an Intrinsic DNA Binding Preference towards AT-rich DNA” (Molecules, 2021).

Tests used:
GapRΔC17 [1] = target: T1, GapRΔC17 (Caulobacter crescentus, UniProt B8H4R9 1-72); assay: NMR titration (1H-15N HSQC); MST: 20 mM PBS, 150 mM NaCl, 0.02% n-dodecyl-β-D-maltoside, pH 7, 20 nM labeled dimer (labeling at room temperature); NMR netropsin competition: 50 mM sodium phosphate, 150 mM NaCl, pH 7.0, 90% H2O/5% D2O (so in the source); details: protein: recombinant; tags: C-terminal His6; chain copies: 2
T1 sequence: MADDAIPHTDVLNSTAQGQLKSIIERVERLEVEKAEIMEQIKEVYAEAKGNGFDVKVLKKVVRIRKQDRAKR

GapRΔC17 [2] = target: T1, GapRΔC17; assay: MST; MST: 20 mM PBS, 150 mM NaCl, 0.02% n-dodecyl-β-D-maltoside, pH 7, 20 nM labeled dimer (labeling at room temperature); NMR netropsin competition: 50 mM sodium phosphate, 150 mM NaCl, pH 7.0, 90% H2O/5% D2O (so in the source); details: protein: recombinant, tags: C-terminal His6, chain copies: 2
[3] = target: the molecule itself; assay: crystal structure; hanging drop vapor diffusion at room temperature; protein 10 mg/mL in 50 mM HEPES pH 7.0, 300 mM NaCl; 0.1 M sodium cacodylate pH 6.0, 15% PEG4000; 2.08 angstrom

B1: 3AT DNA (dsDNA)
DNA 1: CGCATATATGCG
DNA 2: CGCATATATGCG
- binding result (GapRΔC17 [1]): binds

B2: 6CG DNA (dsDNA)
DNA 1: CGCGCGCGCGCG
DNA 2: CGCGCGCGCGCG
- Kd (GapRΔC17 [2]): 18 ± 2 µM

B3: 6A DNA (dsDNA)
DNA 1: CGCAAAAAAGCG
DNA 2: CGCTTTTTTGCG
- Kd (GapRΔC17 [2]; blunt): 1.1 ± 0.1 µM

B4: GapR^ΔC17 (DNA binding domain of GapR, residues 1–72) (domain or fragment, Caulobacter crescentus, UniProt B8H4R9 1-72, looked up)
chain: T1 sequence
notes: GapR, nucleoid-associated protein of Caulobacter crescentus, gene gapr (CCNA_03428), residues 1-72 (the C-terminal 17 residues, most of helix α3, deleted); 8.2 kDa; Cloned into the NdeI and XhoI sites of pET-21a(+) and followed by a C-terminal His6-tag; A selenomethionyl derivative was used for phasing; also called DNA recognition motif of GapR; dimer unit of GapR; source: E. coli Rosetta (DE3), …
- binding result [3]: binds
